From PMC7430634, “Inactivation of the dimeric RappLS20 anti-repressor of the conjugation operon is mediated by peptide-induced tetramerization” (Nucleic Acids Research, 2020)

How the values were obtained:
PlcR = settings: SAXS, 2QFC, ref Declerck et al., 2007 (Suppl. ref 7); cited from earlier work
NprR = NprR and its cognate peptide NprX; cited from earlier work
[1] = biological target: PhrF* peptide (Bacillus subtilis) (UniProt P71001); settings: cited from earlier work
[2] = biological target: Rco_(pLS20) (Bacillus subtilis plasmid pLS20); experiment: SEC; Superdex 200 increase 5/150 GL, 500 mM NaCl, 20 mM TRIS pH 8, 0.2 ml/min; proteins alone (1 mg/ml) and mixtures at 1:2, 1:4, 1:1 and 2:1 (Rco:Rap) incubated 30 min on ice; total protein 0.75–1.25 mg/ml; Phr* at 5:1 over Rap where added
[3] = biological target: Rap_(pLS20) (Bacillus subtilis plasmid pLS20); experiment: SAXS; Rap_(pLS20) at 0.5 to 5 mg/ml with 5-fold molar Phr*_(pLS20); 15 mM HEPES pH 7.5, 150 mM NaCl, 1 mM DTT; 293 K; volume fractions of dimer and foot-2-foot tetramer by OLIGOMER
[4] = biological target: Rap_(pLS20) (Bacillus subtilis plasmid pLS20); experiment: AUC; sedimentation velocity, apo Rap_(pLS20) at 4.5 and 25 μM; 20 mM Tris, 250 mM NaCl, 10 mM MgCl2, 1 mM EDTA, 0.1 mM β-mercaptoethanol, 1% glycerol, pH 7.4; 48 000 rpm
[5] = biological target: Rap_(pLS20) (Bacillus subtilis plasmid pLS20); experiment: SAXS; apo Rap_(pLS20) at 0.5 to 5 mg/ml (11.3–113 μM); 15 mM HEPES pH 7.5, 150 mM NaCl, 1 mM DTT; 293 K; volume fractions of dimer and foot-2-foot tetramer by OLIGOMER
[6] = biological target: Rap_(pLS20) (Bacillus subtilis plasmid pLS20); experiment: AUC; sedimentation equilibrium, Rap_(pLS20) (0–15 μM) with Phr*_(pLS20) at 1:3 stoichiometry (Rap:Phr*); same conditions as the SV experiments
[7] = biological target: Rap_(pLS20) (Bacillus subtilis plasmid pLS20); experiment: SEC; Superdex 200 increase 5/150 GL, 500 mM NaCl, 20 mM TRIS pH 8, 0.2 ml/min; proteins alone (1 mg/ml) and mixtures at 1:2, 1:4, 1:1 and 2:1 (Rco:Rap) incubated 30 min on ice; total protein 0.75–1.25 mg/ml; Phr* at 5:1 over Rap where added
[8] = biological target: Rap_(pLS20) (Bacillus subtilis plasmid pLS20); experiment: AUC; sedimentation velocity, 4.5 μM Rap_(pLS20) with Phr*_(pLS20) at 4.5 μM or 15 μM; 20 mM Tris, 250 mM NaCl, 10 mM MgCl2, 1 mM EDTA, 0.1 mM β-mercaptoethanol, 1% glycerol, pH 7.4
[9] = biological target: Rap_(pLS20) (Bacillus subtilis plasmid pLS20); experiment: AUC; sedimentation equilibrium, apo Rap_(pLS20) at 4.5 to 25 μM; same conditions as the SV experiments; 7000 to 10 000 rpm
[10] = biological target: Rap_(pLS20) (Bacillus subtilis plasmid pLS20); experiment: fluorescence polarisation; equilibrium competition: native Phr*_(pLS20) 0.6–1250 μM against 10 μM Rap_(pLS20) and 50 nM 6-FAM-Phr*_(pLS20); 20 mM Tris pH 7.5, 150 mM NaCl, 1 mM DTT, 0.01% Triton X-100; 25°C

In the case of LPFEF [PapR], the “oligomerization state of PlcR with peptide” value (PlcR) is given as “tetramers”.

In the case of “SSKPDIVG [NprX, cognate peptide of NprR, eight amino acids (SSKPDIVG)]”, the Kd (NprR) is given as 0.03 µM.

For RapF (from UniProt P71002), the Kd [1] is listed as 3.1 µM.

Work on Rco_(pLS20) (natural protein) yielded a stoichiometry N [2] of 4.

In the case of Rap_(pLS20) (natural protein), the percent tetramers above 2.5 mg/ml (57.7 μM) with Phr* (pLS20) [3] is reported as 100%, the percent tetramers at 0.5 mg/ml (11.3 μM) with Phr* (pLS20) [3] is reported as 75% and the percent as a single species (dimer) at 4.5 μM [4] is reported as greater than 96%. The percent tetramers at 4.5 μM [4] was 1.1%, the percent tetramers at 25 μM [4] was 3.6% and the stoichiometry N [4] was 2. It also gave a dimer fraction at 0.5 mg/ml (11.3 μM) [5] of 0.78, a dimer fraction at 5 mg/ml (0.11 mM) [5] of 0.48 and a tetramer fraction at 0.5 mg/ml (11.3 μM) [5] of 0.22. The tetramer fraction at 5 mg/ml (0.11 mM) [5] was 0.52, the stoichiometry N [6] was 4 and the stoichiometry N [7] was 2. It also gave a stoichiometry N [8] of 4 and a stoichiometry N [9] of 2.

In the case of QKGMY [Phr*_(pLS20) peptide (QKGMY)], the IC50 [10] is reported as 26.7 µM and the Kd [10] is reported as 7.42 µM.
